# Assay results published in patent publication US20230272055A1 (Incyte, published 2023).
# B1: anti-mutCALR antibody clone 38 (antibody, human IgG1, kappa, V domains shown)
# VH: EVQPVQSGAEVKKPGSSVKVSCKASGGTFSSYAISWVRQAPGQGLEWMGLVDPEDGETIYAEKFRGRVTITADTSTDTAYMELSSLRSEDTAVYYCATEESYGPWGQGTLVTVSS
# VL: DIQLTQSPSSLSASVGDRVTITCQASQDISNYLNWYQQKPGKAPKLLIYDASNLETGVPSRFSGSGSGTEFTLTISSLQPEDFATYYCQQLNSYPLTFGGGTKLEIKR
# notes: human IgG1; group 3
# B2: anti-mutCALR antibody clone 39 (antibody, human IgG1, kappa, V domains shown)
# VH: EVQLVQSGAEVKKPGSSVKVSCKASGGTFSSYAISWVRQAPGQGLEWMGLVDPEDGETIYAEKFQGRVTITADTSTDTAYMELSSLRSEDTAVYYCATEESYGPWGQGTLVTVSS
# VL: DIQLTQSPSSLSASVGDRVTITCQASQDISNYLDWYQQKPGKAPKLLIYDASNLETGVPSRFSGSGSGTEFTLTISSLQPEDFATYYCQQLNSYPLTFGGGTKLEIKR
# notes: human IgG1; group 3
# B3: anti-mutCALR antibody clone 33 (antibody, human IgG1, lambda, V domains shown)
# VH: QVQLVQSGAEVKKPGATVKISCKVSGYSFTDYFIHWVQQAPGKGLAWVGLVDPEDGETIYAEKFQGRVTITADTSTDTAYMELSSLRSEDTAVYYCATPGGILTDPDAFDIWGQGTMVTVSS
# VL: QSALTQPRSVSGSPGQSVTISCAGTGSDVGGYNHVSWYQHHPGKAPKLMIYDVNKRPSGVPDRFSGSKSGNTASLTISGLQAEDEADYYCSSYIPSSTRWVFGGGTKLTVLG
# notes: human IgG1; group 2
# B4: anti-mutCALR antibody clone 34 (antibody, human IgG1, lambda, V domains shown)
# VH: QVQLVQSGAEVKKPGATVKISCKVSGYSFTDYFIHWVQQAPGKGLAWVGLVDPEDGETIYAEKFQGRVTITADTSTDTAYMELSSLRSEDTAVYYCATPGGILTDPDAFDIWGQGTMVTVSS
# VL: QSALTQPASVSGSPGQSITISCTGTSSDVGGYNYVSWYQQHPGKAPKLMIYEVSNRPSGVSNRFSGSKSGNTASLTISGLQAEDEADYYCSSYTSSSTYVFGTGTKVTVLG
# notes: human IgG1; group 2
# B5: anti-mutCALR antibody clone 21 (antibody, human IgG1, lambda, V domains shown)
# VH: EVQLVQSGAEVKKPGASVKVSCEVSGYTLTELSMQWVRQAPGKGLEWMGGFDPDDGETMYAEKFQGRLTVTEDTSTDTVYMELRSLTSEDTALYFCATSPGYDFFDYWGQGTLVTVSS
# VL: SYVLTQPPSVSVAPGQTARVSCGGNNIGSKSVNWYRQKPGQAPVLVIYDDSDRPSGIPERFSGSNSGNTATLTISRVEAGDEADYYCQVWDSSNDLLIFGGGTKLTVLG
# notes: human IgG1; group 1
# B6: anti-mutCALR antibody clone 30 (antibody, human IgG1, lambda, V domains shown)
# VH: EVQLVQSGAEVKKPGASVKVSCKVSGYTLTELSMQWVRQAPGKGLEWMGGFDPDDGETMYAEKFQGRLTVTEDTSTDTVYMELRSLTSEDTALYFCATSPGYDFFDYWGQGTLVTVSS
# VL: SYVLTQPPSVSVAPGKTATITCGGNNIGTKSVHWYQQKPGQAPVLVVYDDSDRPSGIPERFSGSNSGNTATLTINRVEAGDEADYYCQVWDSSNDLLIFGGGTKLTVLG
# notes: human IgG1; group 1
# B7: anti-mutCALR antibody clone 26 (antibody, human IgG1, lambda, V domains shown)
# VH: EVQLVQSGAEVKKPGASVKVSCKVSGYTLTELSMQWVRQAPGKGLEWMGGFDPDDGETMYAEKFQGRLTVTEDTSTDTVYMELRSLTSEDTALYFCATSPGYDFFDYWGQGTLVTVSS
# VL: SYVLTQPPSVSVAPGQTARITCGGNNIGSKSVHWYQQKPGQAPVLVVYDDSDRPSGIPERFSGSNSGNTATLTISRVEAGDEADYYCQVWDSSIDHLIFGGGTKVTVLG
# notes: human IgG1; group 1
# B8: anti-mutCALR antibody clone 22 (antibody, human IgG1, lambda, V domains shown)
# VH: EVQLVQSGAEVKKPGASVKVSCKVSGYTLTELSMQWVRQAPGKGLEWMGGFDPDDGETMYAEKFQGRLTVTEDTSTDTVYMELRSLTSEDTALYFCATSPGYDFFDYWGQGTLVTVSS
# VL: SYVLTQPPSVSVAPGKTARITCGGNNIGSKNVHWYQQKPGQAPVLVVYDDSDRPSGIPERFSGSNSGNTATLTINRVEAGDEADYYCQVWDSSNDLLIFGGGTKLTVLG
# notes: human IgG1; group 1
# B9: anti-mutCALR antibody clone 11 (antibody, human IgG1, lambda, V domains shown)
# VH: EVRLVQSGAEVKKPGASVKVSCKVSGYTLTELSMQWVRQAPGKGLEWMGGFDPDDGETMYAEKFQGRLTVTEDTSTDTVYMELRSLTSEDTALYFCATSPGYDFFDYWGQGTLVTVSS
# VL: QSALTQPRSVSGSPGQSVTISCTGTSSDVGGYNYVSWYQQHPGKAPKLMIYDVSKRPSGVPDRFSGSNSGNTATLTINRVEAGDEADYYCQVWDSSNDLLIFGGGTKLTVLG
# notes: human IgG1; group 1
# B10: anti-mutCALR antibody clone 27 (antibody, human IgG1, lambda, V domains shown)
# VH: EVQLVQSGAEVKKPGASVKVSCKVSGYTLTELSMQWVRQAPGKGLEWMGGFDPDDGETMYAEKFQGRLTVTEDTSTDTVYMELRSLTSEDTALYFCATSPGYDFFDYWGQGTLVTVSS
# VL: SYVLTQPPSVSVAPGQTARITCGGNNIGIKSVHWYQQKPGQAPVLVVYDDRDRPSGIPERFSGSNSGNTATLTINRVEAGDEADYYCQVWDSSNDLLIFGGGTKLTVLG
# notes: human IgG1; group 1
# B11: anti-mutCALR antibody clone 23 (antibody, human IgG1, lambda, V domains shown)
# VH: EVQLVQSGAEVKKPGASVKVSCKVSGYTLTELSMQWVRQAPGKGLEWMGGFDPDDGETMYAEKFQGRLTVTEDTSTDTVYMELRSLTSEDTALYFCATSPGYDFFDYWGQGTLVTVSS
# VL: SYVLTQPPSVSVAPGQTARITCGGNNIGIKSVHWYQQKPGQAPVLVVYDDSDRPSGIPERFSGSNSGNTATLTINRVEAGDEADYYCQVWDSSNDLLIFGGGTKLTVLG
# notes: human IgG1; group 1
# B12: anti-mutCALR antibody clone 25 (antibody, human IgG1, lambda, V domains shown)
# VH: EVQLVQSGAEVKKPGASVKVSCKVSGYTLTELSMQWVRQAPGKGLEWMGGFDPDDGETMYAEKFQGRLTVTEDTSTDTVYMELRSLTSEDTALYFCATSPGYDFFDYWGQGTLVTVSS
# VL: SYELTQPPSVAVAPGQTARITCGGNNIGRKAVHWYQQKPGQAPVLVVYDDSDRPSGIPERFSGSNSGNTATLTINRVEAGDEADYYCQVWDSSNDLLIFGGGTKLTVLG
# notes: human IgG1; group 1
# B13: anti-mutCALR antibody clone 24 (antibody, human IgG1, lambda, V domains shown)
# VH: EVQLVQSGAEVKKPGASVKVSCKVSGYTLTELSMQWVRQAPGKGLEWMGGFDPDDGETMYAEKLQGRLTVTEDTSTDTVYMELRSLTSEDTALYFCATSPGYDFFDYWGQGTLVTVSS
# VL: SYVLTQPPSVSVAPGKTARITCGGNNIGSKSVHWYQQKPGQAPVLVVYDDSDRPSGIPERFSGSNSGNTATLTINRVEAGDEADYYCQVWDSSNDLLIFGGGTKLTVLG
# notes: human IgG1; group 1
# B14: anti-mutCALR antibody clone 28 (antibody, human IgG1, lambda, V domains shown)
# VH: EVQLVQSGAEVKKPGASVKVSCKVSGYTLTELSMQWVRQAPGKGLEWMGGFDPDDGETMYAEKFQGRLTVTEDTSTDTVYMELRSLTSEDTALYFCATSPGYDFFDYWGQGTLVTVSS
# VL: SYELTQPPSVSVAPGQTARITCGGNNIGSKSVHWYQQKPGQAPVLVVYDDSDRPSGIPERFSGSNSGNTATLTISRVEAGDEADYYCQVWDADSDQLIFGGGTKLTVLG
# notes: human IgG1; group 1
# B15: anti-mutCALR antibody clone 29 (antibody, human IgG1, lambda, V domains shown)
# VH: EVQLVQSGAEVKKPGASVKVSCKVSGYTLTELSMQWVRQAPGKGLEWMGGFDPDDGETMYAEKFQGRLTVTEDTSTDTVYMELRSLTSEDTALYFCATSPGYDFFDYWGQGTLVTVSS
# VL: SYVLTQPPSVSVAPGKTARITCGGNNIGSKSVHWYQQKPGQAPVLVVYDDSDRPSGIPERFSGSNSGNTATLTISRVEAGDEADYYCQVWDSSSDLLIFGGGAKLTVLG
# notes: human IgG1; group 1
# Molecular target: MBP protein (UniProt P0AEX9 27-392 = MBP)
# Assay: SPR (Biacore 8K), antibody captured on anti-human IgG (Fc), MBP injected
# Protocol: Experiment 1: Recombinant MBP-mutCALR Type 1 fusion protein was custom made at Cepter (cepterbiopartners.com). Data for the interaction of antibodies with recombinant MBP-mutCALR Type 1 fusion protein were collected at 25° C. on a Biacore 8K instrument (Cytiva, Marlborough, Mass.), and all reagents were obtained from Cytiva unless otherwise specified. The experiments were conducted using Tris-buffered saline (pH 7.2), 0.005% Surfactant P20, 1 mM CaCl₂) as running buffer. To prepare the capture surfaces, anti-human IgG (Fc) antibodies (Product #29234600) was amine-coupled onto a CM4 chip (Product #BR100534) under standard conditions using an Amine Coupling Kit (Product #BR100050). […] The kinetics parameters were obtained by applying 1:1 binding model to fit the data from multiple-cycle injection experiments using Biacore Insight Evaluation software.
row,Binder,binding result
1,B1,no binding (tested: 250 nM)
2,B2,no binding (tested: 250 nM)
3,B3,no binding (tested: 250 nM)
4,B4,no binding (tested: 250 nM)
5,B5,no binding (tested: 250 nM)
6,B6,no binding (tested: 250 nM)
7,B7,no binding (tested: 250 nM)
8,B8,no binding (tested: 250 nM)
9,B9,no binding (tested: 250 nM)
10,B10,no binding (tested: 250 nM)
11,B11,no binding (tested: 250 nM)
12,B12,no binding (tested: 250 nM)
13,B13,no binding (tested: 250 nM)
14,B14,no binding (tested: 250 nM)
15,B15,no binding (tested: 250 nM)
